In publication PMC10665462 (2023):

Target: BTN3A1 BFI (JM+B30.2) (Homo sapiens, UniProt O00481)
Test: ITC

Chain of BTN3A1 BFI (JM+B30.2) (O00481 272-513): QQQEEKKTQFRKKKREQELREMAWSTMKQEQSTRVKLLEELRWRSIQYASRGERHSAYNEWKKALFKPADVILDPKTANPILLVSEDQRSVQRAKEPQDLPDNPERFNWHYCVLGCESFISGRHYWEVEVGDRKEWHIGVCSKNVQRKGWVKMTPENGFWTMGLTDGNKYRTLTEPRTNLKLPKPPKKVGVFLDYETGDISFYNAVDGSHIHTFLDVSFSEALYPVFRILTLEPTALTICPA

Row | Kd [µM] | Binder
1 | 0.78 | BTN2A1 ID271 (JM+B30.2) (protein, HMBPP) KLQKEKKILSGEKEFERETREIALKELEKERVQKEEELQVKEKLQEELRWRRTFLHAVDVVLDPDTAHPDLFLSEDRRSVRRCPFRHLGESVPDNPERFDSQPCVLGRESFASGKHYWEVEVENVIEWTVGVCRDSVERKGEVLLIPQNGFWTLEMHKGQYRAVSSPDRILPLKESLCRVGVFLDYEAGDVSFYNMRDRSHIYTCPRSAFSVPVRPFFRLGCEDSPIFICPALTGANGVTVPEEGLTLHRVGTHQSL
2 | 190 | BTN2A1 ID271 (JM+B30.2) (protein, 4-M-HMBPP) KLQKEKKILSGEKEFERETREIALKELEKERVQKEEELQVKEKLQEELRWRRTFLHAVDVVLDPDTAHPDLFLSEDRRSVRRCPFRHLGESVPDNPERFDSQPCVLGRESFASGKHYWEVEVENVIEWTVGVCRDSVERKGEVLLIPQNGFWTLEMHKGQYRAVSSPDRILPLKESLCRVGVFLDYEAGDVSFYNMRDRSHIYTCPRSAFSVPVRPFFRLGCEDSPIFICPALTGANGVTVPEEGLTLHRVGTHQSL
